Experimental data reported in publication PMC5498155 (Bioorganic & medicinal chemistry, 2016).
Entries after “also recorded” stand apart in the source; their conditions may differ.

Target: CXCR4 (Homo sapiens, UniProt P61073)
Experiment: Competitive CXCR4 binding assay
Details: CHO cells stably transfected with CXCR4; 12G5 antibody competition

Sequence of CXCR4 (P61073 whole entry): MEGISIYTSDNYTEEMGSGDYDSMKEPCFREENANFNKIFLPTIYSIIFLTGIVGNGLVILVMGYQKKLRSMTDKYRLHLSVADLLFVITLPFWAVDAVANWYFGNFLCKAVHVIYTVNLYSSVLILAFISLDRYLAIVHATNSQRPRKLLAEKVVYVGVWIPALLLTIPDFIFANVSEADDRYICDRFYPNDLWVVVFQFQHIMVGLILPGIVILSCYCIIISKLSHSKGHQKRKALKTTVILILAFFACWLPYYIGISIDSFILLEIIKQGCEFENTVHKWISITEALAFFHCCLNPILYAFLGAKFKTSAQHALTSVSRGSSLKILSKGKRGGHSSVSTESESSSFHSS

## SDF-1α1–8 (KPVSLSYR) [ligand 19]
  CXCR4 binding activity (in words): very low CXCR4 binding affinity; also recorded: No binding
